{"source": "the nanobody polyreactivity screen of Harvey et al. (2022)", "data": [{"assay": "yeast display, Sf9 membrane polyspecificity reagent, FACS + sequencing; frameworks hold sequencing errors", "outline": "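Polyreactivity labels are assigned by the sorting gate from which each nanobody was recovered. The gates were low and high (top ~1%), set on anti-HA fluorescence for expression and streptavidin fluorescence for reagent binding. Before sorting, galactose-induced (36–48 hours) yeast display cells were stained for 1 hour at 4 °C with 10% biotinylated, detergent-solubilized Sf9 membrane reagent.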", "values": [{"sequence": "QVQLVESGGGLVQAGGSLRLRCAASGRIFGRNAMGWYRQAPGKERELVATISSGDTTDYADSVKGRFTISRDNAKNTVYLQMNSLKPEDTAVYYITIYNYWGQGTQVTVSS", "polyreactivity (PSR sort gate)": "low polyreactivity"}, {"sequence": "QVQLVESGGGLVQAGGSLRLRCAASGRIFRIYPMGWYRQAPGKERELVARITYSGGSTYYADSVKGRFTISRDNAKNTVYLQMNSLKPEDTAVYYCAADWLGYQYGYWGQGTQVTVSS", "polyreactivity (PSR sort gate)": "low polyreactivity"}, {"sequence": "QVQLVESGGGLVQAGGSLRLRCAASGRTFLPYAMGWSRQAPGKVRVLVAAIDSSGTSTYYADSVKGRFTISRDNAKNTVYLQMNSLKPEDTAVYYCAKAWPDHWYSRYDYWGQGTQVTVSS", "polyreactivity (PSR sort gate)": "low polyreactivity"}, {"sequence": "QVQLVESGGGLVQAGGSLRLRCAASGRTFSSNAMGWYRQAPGKERELVASISRRGGSTYYADSVKGRFTISRDNAKNSVYVQMNSLKPEDTAVYDCAARQSGQILGYYSRYDYWGQGTQVTVSS", "polyreactivity (PSR sort gate)": "high polyreactivity"}, {"sequence": "QVQLVESGGGLVQAGGSLRLRCAASGRTFTAYTMGLYRQAPGKEREFVASISSGVTYADSVKGRFTISRDNAKITVYLQMNSLKPEDTAVYYCAARLWYVQGYVPYVHHRFDYWGQGTQVTVSS", "polyreactivity (PSR sort gate)": "low polyreactivity"}, {"sequence": "QVQLVESGGGLVQAGGSLRLRCAASGSIFARNAMGWYRQAPGKERELVASITWSGASTFYADSVKGRFTISRDNAKYTVYLQMNSLKPDVTAVYYCAATDQKLSLDYSSYEYWGQGSQVTVSS", "polyreactivity (PSR sort gate)": "low polyreactivity"}, {"sequence": "QVQLVESGGGLVQAGGSLRLRCAASGSIFIRYAMGWYRQAPGKERELVAVISGRGVRTNYADSVKGRFTIARDTAKNPVYLQMNSLKPEDTAVYYCAVRYYGKQLGPGVRYTYNYLGQGTQVTVSS", "polyreactivity (PSR sort gate)": "high polyreactivity"}, {"sequence": "QVQLVESGGGLVQAGGSLRLRCAASGSIFWPYAMGWYRQAPGKERELVAGISSGGSTYYADSVKGRFTISRDNAKNTDYLQMNSLKPEDTAVYYCAARWQWLNGYYYWGQGSQVTVSS", "polyreactivity (PSR sort gate)": "high polyreactivity"}, {"sequence": "QVQLVESGGGLVQAGGSLRLRCAASGSIFYRNAMGWYRQAPGTERELVAAISSDGSTNYADSVKGRFSISRDNAKNTVYLQMNSLKPEDTAVYYCNADYVQQVAKYQYGYEYGYWGQGTQVTVSS", "polyreactivity (PSR sort gate)": "low polyreactivity"}, {"sequence": "QVQLVESGGGLVQAGGSLRLRCAASGSTFEMYAMGWYRQEPGKERELVAAITWDTDSTYYADSVKGRFTISRDNAKNTVYLQMNSLKPEDTAVYYCNSQSGRASHYRGYGFDYWGQGTQVTVSS", "polyreactivity (PSR sort gate)": "high polyreactivity"}, {"sequence": "QVQLVESGGGLVQAGGSLRLRCAASGSTFGRNTMGWYRQAPGKERELVAAISKSGGYTRYADSVKGRFTISRDNAKNTVYLQMNSLKPEDTAVYYCAARVYSLGYGGDYWGQGTQVTVSS", "polyreactivity (PSR sort gate)": "high polyreactivity"}, {"sequence": "QVQLVESGGGLVQAGGSLRLRCAASGSTFSEYAMGWYRQAPGKERELVAAISYNGGSTYYADSVKGRFTISRDNAKNTVYLQMNSLKPEDTAVYYCNAKLFYDRYDYWGQGTQVTVSS", "polyreactivity (PSR sort gate)": "low polyreactivity"}, {"sequence": "QVQLVESGGGLVQAGGSLRLRCAASGSTFTYNTMGWYRQAPGKERELVAAINTTGNTYADSVKGRFTISRDNAKNTVYLQMNSLKPEDTAVYYCNTDYVPRRHDMDYWGQGTQVTLSS", "polyreactivity (PSR sort gate)": "low polyreactivity"}, {"sequence": "QVQLVESGGGLVQAGGSLRLRCAASGSTFVRYAMGWYREAAGKEMELVAAISSRGGSTYYADSVKGRFTISRDNAKNTVYLQMNSLKPEDTAVYYCNAAAFINFMLYDYWGQGTQVTVSS", "polyreactivity (PSR sort gate)": "high polyreactivity"}, {"sequence": "QVQLVESGGGLVQAGGSLRLRCAASGSTFYIYAMGWYRPAPGKERELVARISGSGGSTYYADSVKGRFTISRDNAKNTVYLQMNSLKPEDTSVYSCAAQRRVVGRHGLSLIRYDYWGQGTQVTVSS", "polyreactivity (PSR sort gate)": "low polyreactivity"}, {"sequence": "QVQLVESGGGLVQAGGSLRLRCAASGSTSWSNPMGWYRQAPGKERELVAAITTGASTYYADSVKGRFTISRDNAKNTVYLQMNSLKPEDTAVYYCAADPWVLWSYYYWGQGTQVTVSS", "polyreactivity (PSR sort gate)": "low polyreactivity"}, {"sequence": "QVQLVESGGGLVQAGGSLRLRCAASGTFYLYAMGWYRQAPWKQRELVAAISGSGSTNYADSVKGRFTISRDNAKNTVYLQMNSLKPEDTAVYYCAAYQRYDSLTGARYEYDYWGQGTQVTVSS", "polyreactivity (PSR sort gate)": "low polyreactivity"}, {"sequence": "QVQLVESGGGLVQAGGSLRLRCAASGYTFKHYTMGWYREAPGKERELVAAISRRGGRTYYADSVKGRFTISRDNAKNTVYLQMNSLKPEDTAVYYCNRVPRARKGDYWGQGTQVTVSS", "polyreactivity (PSR sort gate)": "high polyreactivity"}, {"sequence": "QVQLVESGGGLVQAGGSLRLRCAASGYTLTPYTMGWYRQAPGKERELVAAINRSGGSTYYADSVKGRFTISRDNAKNTVYLQMNSLKPEDTAVYYCAAYGYYNFGYYYWGQGTQVTVSS", "polyreactivity (PSR sort gate)": "high polyreactivity"}, {"sequence": "QVQLVESGGGLVQAGGSLRLRCAASRRTLGVYALGWYRQAPGKERELVATITAGGSITSYADSVKGRFTISRDNAKNTVYLQMNTLKPEDTAVYYCAAEQGCSVLYDSWGQGTQVTVSS", "polyreactivity (PSR sort gate)": "low polyreactivity"}, {"sequence": "QVQLVESGGGLVQAGGSLRLRCAASVRIFRVYAMGRYSQAPGKERELVAAISSSGGSTYYADSVKGRFTMSRDNAKNTDYLQMNSLKPEDTAVYYCAAGGLHTIQRPGYYYWGQGTQVTVSS", "polyreactivity (PSR sort gate)": "low polyreactivity"}, {"sequence": "QVQLVESGGGLVQAGGSLRLRCAPSGFIFIFNAMGWYRQAPGKERELVAAIDTSDDSTYYADSVKGRFTISRDNAKNTVYLQMNSLKPEDTAVYYCAAEELSNYEYWGQGTQVTVSS", "polyreactivity (PSR sort gate)": "low polyreactivity"}, {"sequence": "QVQLVESGGGLVQAGGSLRLRCASSGGIFYLNAMGWYRQAPGKERELVAAITGTGGNTYYADSVKGRFTISRDNAKNTVYLQMNSLKPEDTGVYYCNVSSRRLRGLDYWGQGTQVSVSS", "polyreactivity (PSR sort gate)": "low polyreactivity"}, {"sequence": "QVQLVESGGGLVQAGGSLRLRCASSGRNFVPYAMGGDRQAPGTEREFVAAISRSGGSTHYADSVKGRFTISRDNAKNTVYLQMNSLKPEDTAVYYCAADYDLWLWSGYYWGQGTQVTVSS", "polyreactivity (PSR sort gate)": "high polyreactivity"}, {"sequence": "QVQLVESGGGLVQAGGSLRLRCASSGYIFTYYAMGWYRQAPGKERELVAAISWSGGRTYYADSVKGRFTISRDNAKITVYLQMNSLKPEDTAVYYCNAVDKRYPDMDYWGQGTQVTVSS", "polyreactivity (PSR sort gate)": "high polyreactivity"}, {"sequence": "QVQLVESGGGLVQAGGSLRLRCGASGRTFSSNAMGWYRQAPGKERELVAVITRRGGSTYYADSVKGLFTISRDNAMNNVYLQMNSLKPEDTAVYYCATVAPPQRSGRRSAGEKYYYWGQGTQVTVSS", "polyreactivity (PSR sort gate)": "high polyreactivity"}, {"sequence": "QVQLVESGGGLVQAGGSLRLRCSASGSTIKDYTMGLYRQAPGKERELVAAITDSGGSTYYADSVKGRFTISRDNAKNTVYLQMNSLTPEDTAVYFCAAAVPELYEVRYHDDYWGQGTQVTVSS", "polyreactivity (PSR sort gate)": "low polyreactivity"}, {"sequence": "QVQLVESGGGLVQAGGSLRLRGAASGSIFSSNAKGWCRPAPGKERELVAAICRSGGDTYYADSVKGRFTISRDNAKNTVYLQMNSLKPVDTAVYYCAARNSYGGPTYEHYYWGQGTQVSVSS", "polyreactivity (PSR sort gate)": "high polyreactivity"}, {"sequence": "QVQLVESGGGLVQAGGSLRLRSAASGIILGKYAMGWYRQAPGKERELVAAISGRGGRTYYADSVKGRFTISRDNAKNTVYLQMNSLKQEDTAVYYWWGQGTQVTVSS", "polyreactivity (PSR sort gate)": "low polyreactivity"}, {"sequence": "QVQLVESGGGLVQAGGSLRLRSAASGYTFSIYAMGRYRQATGKERELVASISWSAGNTYYADYVKGRFTFSLDNAKNTVYLQMNSLKPEDTAVYYCAVPRRLIWYRPSSYDYWGQGTQVTVSS", "polyreactivity (PSR sort gate)": "low polyreactivity"}, {"sequence": "QVQLVESGGGLVQAGGSLRLSCAAAGIIFILYTMGWYRKAPGKERELVATISSGGGSTFYADSVKGRFTISRDNAKNTVYLQMHRLKPEDTAVYYCAAFPVFGYSYDYWGQGTQVTVSS", "polyreactivity (PSR sort gate)": "low polyreactivity"}, {"sequence": "QVQLVESGGGLVQAGGSLRLSCAAAGLIFRFYAMGWYRQSPGKERELVAAISSRGGSRYYADSVKGRFTISRDNAKNTVYLQMNSLKPEDTAVYYCAAAVRKMAYPHYEYGYWGQGTQVTVSS", "polyreactivity (PSR sort gate)": "high polyreactivity"}]}]}
